B1: CHIKV nsP1 mutant (H37A; amino acids 1 to 535) with internal StrepII-3XFLAG (enzyme)
chain: MDPVYVDIDADSAFLKALQRAYPMFEVEPRQVTPNDAANARAFSHLAIKLIEQEIDPDSTILDIGSAPARRMMSDRKYHCVCPMRSAEDPERLANYARKLASAAGKVLDRNISGKIGDLQAVMAVPDTETPTFCLHTDVSCRQRADVAIYQDVYAVHAPTSLYHQAIKGVRLAYWVGFDTTPFMYNAMAGAYPSYSTNWADEQVLKAKNIGLCSTDLTEGRRGKLSIMRGKKLEPCDRVLFSVGSTLYPESRKLLKSWHLPSVFHLKGKLSFTCRCDTVVSCEGYVVKRITMSPGLYGKTTGYAVTHHADGFLMCKTTDTVDGERVSFSVCTYVPATICDQMTGILATEVTPEDAQKLLVGLNQRIVVNGRTQRNTNTMKNYMIPVVAQAFSKWAKECRKDMEDEKLLGVRERTLTCCCLWAFKKQKTHTVYKRPDTQSIQKVQAEFDSFVVPSLWSSGLSIPLRTRIKWLLSKVPKTDLTPYSGDAQEARDAEKEAEEEREAELTLEALPPLQAAQEDVQVEIDVEQLEDRAGA
notes: nonstructural protein 1 (nsP1) of chikungunya virus, amino acids 1 to 535 of the nonstructural polyprotein; also called nsP1 ring; nsP1 dodecameric ring; not shown: StrepII, internal (after residue 516), kept; copies: 12
B2: CHIKV nsP2, full length (amino acids 536 to 1333) (enzyme)
chain: GIIETPRGAIKVTAQPTDHVVGEYLVLSPQTVLRSQKLSLIHALAEQVKTCTHSGRAGRYAVEAYDGRVLVPSGYAISPEDFQSLSESATMVYNEREFVNRKLHHIAMHGPALNTDEESYELVRAERTEHEYVYDVDQRRCCKKEEAAGLVLVGDLTNPPYHEFAYEGLKIRPACPYKIAVIGVFGVPGSGKSAIIKNLVTRQDLVTSGKKENCQEITTDVMRQRGLEISARTVDSLLLNGCNRPVDVLYVDEAFACHSGTLLALIALVRPRQKVVLCGDPKQCGFFNMMQMKVNYNHNICTQVYHKSISRRCTLPVTAIVSSLHYEGKMRTTNEYNKPIVVDTTGSTKPDPGDLVLTCFRGWVKQLQIDYRGHEVMTAAASQGLTRKGVYAVRQKVNENPLYASTSEHVNVLLTRTEGKLVWKTLSGDPWIKTLQNPPKGNFKATIKEWEVEHASIMAGICSHQMTFDTFQNKANVCWAKSLVPILETAGIKLNDRQWSQIIQAFKEDKAYSPEVALNEICTRMYGVDLDSGLFSKPLVSVYYADNHWDNRPGGKMFGFNPEAASILERKYPFTKGKWNINKQICVTTRRIEDFNPTTNIIPANRRLPHSLVAEHRPVKGERMEWLVNKINGHHVLLVSGCSLALPTKRVTWVAPLGVRGADYTYNLELGLPATLGRYDLVVINIHTPFRIHHYQQCVDHAMKLQMLGGDSLRLLKPGGSLLIRAYGYADRTSERVICVLGRKFRSSRALKPPCVTSNTEMFFLFSNFDNGRRNFTTHVMNNQLNAAFVGQATRAGC
notes: nonstructural protein 2 (nsP2) of chikungunya virus, full length, amino acids 536 to 1333 of the nonstructural polyprotein; Contact residues in the text (R56, R59, Y60, R101; nsP2h 1 to 465) count on nsP2 itself; The His6-SUMO tag is called cleavable; Only the helicase region is built in the cryo-EM model; also called nsP2 helicase-protease
B3: ONNV nsP4, full length (amino acids 1904 to 2514) (enzyme)
chain: IFSSDTGQGHLQQKSVRQTTLPVNIVEEVHEEKCYPPKLDEIKEQLLLKRLQESASTANRSRYQSRKVENMKATIIHRLKEGCRLYLASDTPRVPSYRITYPAPVYSPSISIKLNNPETAVAVCNEFLARNYPTVASYQVTDEYDAYLDMVDGSESCLDRATFNPSKLRSYPKQHSYHAPTIRSAVPSPFQNTLQNVLAAATKRNCNVTQMRELPTMDSAVFNVECFKKYACNQEYWREFASSPIRVTTENLTMYVTKLKGPKAAALFAKTHNLLPLQEVPMDRFTMDMKRDVKVTPGTKHTEERPKVQVIQAAEPLATAYLCGIHRELVRRLNAVLLPNVHTLFDMSAEDFDAIISTHFKPGDAVLETDIASFDKSQDDSLALTAMMLLEDLGVDQPILDLIEAAFGEISSCHLPTGTRFKFGAMMKSGMFLTLFVNTLLNITIASRVLEERLTTSACAAFIGDDNIIHGVVSDALMAARCATWMNMEVKIIDAVVSEKAPYFCGGFILHDTVTGTSCRVADPLKRLFKLGKPLAAGDEQDEDRRRALADEVTRWQRTGLITELEKAVYSRYEVQGITAVITSMATFASSKENFKKLRGPVVTLYGGPK
notes: Contact residues in the text (D219, E392, D393, D402, E405; NTD 1 to 105) count on nsP4 itself; also called o'nyong-nyong virus nsP4; nsP4 RdRp

Legend:
Test in all cases: cryo-EM structure; single-particle cryo-EM of the reconstituted nsP1 + 2 + 4 RC core mixed with T2 RNA and NTP in 1x buffer Z at 1:10:100 molar ratio; C1, 2.8 Å
[1] = molecular target: the molecule itself
[2] = molecular target: B3; settings: both partners purified
[3] = molecular target: B1; settings: both partners purified

## B1
[1]
  stoichiometry N: 12

## B2
[2]
  stoichiometry N: 1 nsP2 per nsP4

## B3
[3]
  stoichiometry N: 12 nsP1 per nsP4
